Experimental findings from US20080089931 are described below.

The target of the series is EphA2 receptor tyrosine kinase (UniProt P29317).
UniProt P29317, sequence (P29317 whole entry, looked up): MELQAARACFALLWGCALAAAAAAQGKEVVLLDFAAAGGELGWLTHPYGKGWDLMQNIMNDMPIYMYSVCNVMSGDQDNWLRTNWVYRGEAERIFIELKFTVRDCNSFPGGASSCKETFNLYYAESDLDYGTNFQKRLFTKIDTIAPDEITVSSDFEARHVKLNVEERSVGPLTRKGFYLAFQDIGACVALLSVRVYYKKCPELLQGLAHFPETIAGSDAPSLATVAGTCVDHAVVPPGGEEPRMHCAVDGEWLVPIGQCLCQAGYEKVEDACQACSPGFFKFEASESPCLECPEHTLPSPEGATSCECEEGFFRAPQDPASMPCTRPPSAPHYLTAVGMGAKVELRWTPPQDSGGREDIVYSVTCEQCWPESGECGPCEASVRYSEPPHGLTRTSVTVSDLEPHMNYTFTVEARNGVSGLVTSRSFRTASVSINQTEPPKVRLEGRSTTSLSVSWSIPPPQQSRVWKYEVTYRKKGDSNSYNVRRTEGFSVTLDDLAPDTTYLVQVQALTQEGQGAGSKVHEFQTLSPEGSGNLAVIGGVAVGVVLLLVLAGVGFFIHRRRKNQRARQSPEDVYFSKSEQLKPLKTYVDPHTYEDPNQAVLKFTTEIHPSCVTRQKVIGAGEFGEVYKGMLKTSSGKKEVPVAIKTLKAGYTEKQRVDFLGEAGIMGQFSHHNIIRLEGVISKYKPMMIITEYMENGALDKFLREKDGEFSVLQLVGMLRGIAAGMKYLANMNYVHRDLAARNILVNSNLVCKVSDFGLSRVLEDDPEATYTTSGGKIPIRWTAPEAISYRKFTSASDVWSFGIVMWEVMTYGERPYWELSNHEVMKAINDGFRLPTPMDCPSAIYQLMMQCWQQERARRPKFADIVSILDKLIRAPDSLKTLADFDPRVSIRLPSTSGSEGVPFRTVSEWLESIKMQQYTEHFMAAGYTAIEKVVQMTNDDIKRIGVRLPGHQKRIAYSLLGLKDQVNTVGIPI

Consider purified LMW-PTP protein, for which the “dephosphorylation of immunoprecipitated EphA2 (phosphotyrosine Western blot)” value is “the LMW-PTP dephosphorylated EphA2 in an enzyme concentration-dependent and a time-dependent manner”.
